Measurements: PMC2743173 (Neuron, 2008)
One block for each molecule: values may come before it.

Tests used:
LRP4N-Myc [1] = target: LRP4N-Myc (UniProt Q9QYP1); assay: ELISA
LRP4N-Myc [2] = target: LRP4N-Myc (UniProt Q9QYP1 21-1723); assay: ELISA
LRP4N-Myc (UniProt Q9QYP1 21-1723), sequence (Q9QYP1 21-1723): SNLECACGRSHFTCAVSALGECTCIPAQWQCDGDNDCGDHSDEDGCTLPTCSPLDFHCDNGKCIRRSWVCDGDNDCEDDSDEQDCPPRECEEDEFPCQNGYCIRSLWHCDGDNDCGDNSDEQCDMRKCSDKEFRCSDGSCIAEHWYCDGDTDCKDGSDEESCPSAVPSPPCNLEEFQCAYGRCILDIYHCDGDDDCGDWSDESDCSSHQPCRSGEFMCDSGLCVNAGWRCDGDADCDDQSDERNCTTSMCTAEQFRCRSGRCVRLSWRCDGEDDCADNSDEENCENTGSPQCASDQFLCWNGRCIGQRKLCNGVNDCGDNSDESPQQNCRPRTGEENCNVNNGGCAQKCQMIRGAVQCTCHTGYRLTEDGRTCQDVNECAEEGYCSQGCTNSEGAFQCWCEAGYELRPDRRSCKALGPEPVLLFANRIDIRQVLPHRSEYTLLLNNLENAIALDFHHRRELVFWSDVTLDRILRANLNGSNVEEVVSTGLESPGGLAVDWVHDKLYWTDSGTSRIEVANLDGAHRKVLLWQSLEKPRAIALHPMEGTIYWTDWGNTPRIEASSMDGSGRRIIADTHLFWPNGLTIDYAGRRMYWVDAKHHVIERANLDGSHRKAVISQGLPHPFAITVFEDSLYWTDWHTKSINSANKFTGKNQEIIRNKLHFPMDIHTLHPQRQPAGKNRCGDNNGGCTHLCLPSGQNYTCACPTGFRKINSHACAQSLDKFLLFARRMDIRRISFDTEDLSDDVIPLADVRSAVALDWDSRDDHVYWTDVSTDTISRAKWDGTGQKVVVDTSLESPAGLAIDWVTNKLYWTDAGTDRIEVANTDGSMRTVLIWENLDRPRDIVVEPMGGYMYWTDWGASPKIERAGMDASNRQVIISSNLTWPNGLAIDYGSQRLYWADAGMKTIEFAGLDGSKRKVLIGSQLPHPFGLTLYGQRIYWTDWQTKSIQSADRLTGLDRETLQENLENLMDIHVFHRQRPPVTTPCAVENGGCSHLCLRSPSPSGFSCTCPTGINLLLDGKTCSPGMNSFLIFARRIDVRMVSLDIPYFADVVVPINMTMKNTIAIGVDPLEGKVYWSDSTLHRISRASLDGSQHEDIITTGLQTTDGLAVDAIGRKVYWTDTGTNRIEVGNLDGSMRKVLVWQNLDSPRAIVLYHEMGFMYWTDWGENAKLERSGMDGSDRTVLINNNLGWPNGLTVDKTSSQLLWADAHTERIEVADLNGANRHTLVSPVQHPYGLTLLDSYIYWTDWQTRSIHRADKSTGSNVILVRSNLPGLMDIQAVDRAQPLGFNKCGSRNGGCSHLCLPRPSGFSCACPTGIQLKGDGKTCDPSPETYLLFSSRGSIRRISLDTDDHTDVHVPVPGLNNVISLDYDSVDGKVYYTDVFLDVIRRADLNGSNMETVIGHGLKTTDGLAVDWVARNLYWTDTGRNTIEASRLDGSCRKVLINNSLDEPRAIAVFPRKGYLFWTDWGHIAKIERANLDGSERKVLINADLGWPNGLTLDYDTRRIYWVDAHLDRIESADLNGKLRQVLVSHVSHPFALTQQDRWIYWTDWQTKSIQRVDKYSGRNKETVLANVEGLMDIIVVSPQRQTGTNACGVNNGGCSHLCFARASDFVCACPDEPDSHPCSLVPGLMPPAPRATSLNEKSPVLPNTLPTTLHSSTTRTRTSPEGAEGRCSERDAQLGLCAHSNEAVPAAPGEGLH

LRP4N-Myc (UniProt Q9QYP1), sequence (Q9QYP1 21-1723): as above

- Kd (LRP4N-Myc [1]): 500 pM
Molecule: nAgrin-AP (domain or fragment)

- Kd (LRP4N-Myc [2]): 450 ± 41 pM
B1: MuSK-AP (domain or fragment)
chain: EKLPKAPVITTPLETVDALVEEVATFMCAVESYPQPEISWTRNKILIKLFDTRYSIRENGQLLTILSVEDSDDGIYCCIANNGVGGAVESCGALQVKMKPKITRPPINVKIIEGLKAVLPCTTMGNPKPSVSWIKGDNALRENSRIAVLESGSLRIHNVQKEDAGQYRCVAKNSLGTAYSKLVKLEVEVFARILRAPESHNVTFGSFVTLRCTAIGIPVPTISWIENGNAVSSGSIQESVKDRVIDSRLQLFITKPGLYTCIATNKHGEKFSTAKAAATVSIAEWSKSQKDSQGYCAQYRGEVCDAVLAKDALVFFNTSYRDPEDAQELLIHTAWNELKAVSPLCRPAAEALLCNHLFQECSPGVVPTPMPICREYCLAVKELFCAKEWQAMEGKAHRGLYRSGMHLLPVPECSKLPSMHRDPTACTRLPYLDYKKENITTFPSITSSRPSADIPNLPASTSSFAVSPAYSMT
